Data published in PMC6176016 (2018).

Experiments:
[1] = target: T1, FLAG-tagged multimerized MegaAPRIL; assay: MST
T1 chain: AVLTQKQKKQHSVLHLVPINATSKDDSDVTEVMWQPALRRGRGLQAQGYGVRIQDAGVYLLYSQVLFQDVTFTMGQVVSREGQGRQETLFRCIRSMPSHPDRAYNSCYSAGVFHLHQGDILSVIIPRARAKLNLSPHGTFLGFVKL

[2] = target: BAFF (as used in microscale thermophoresis) (UniProt Q9Y275 134-285); assay: MST
Chain of BAFF (as used in microscale thermophoresis) (Q9Y275 134-285): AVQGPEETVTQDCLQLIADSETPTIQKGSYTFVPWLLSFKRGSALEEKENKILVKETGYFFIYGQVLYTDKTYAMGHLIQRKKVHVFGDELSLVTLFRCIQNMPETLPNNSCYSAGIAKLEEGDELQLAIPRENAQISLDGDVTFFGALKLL

B1: FLAG-tagged TACI-S, purified recombinant (receptor)
chain: MSGLGRSRRGGRSRVDQEERWSLSCRKEQGKFYDHLLRDCISCASICGQHPKQCAYFCENKLRSPVNLPPELRRQRSGEVENNSDNSGRYQGLEHRGSEASPALPGLKLSADQVALVYSTLGLCLCAVLCCFLVAVACFLKKRGDPCSCQPRSRPRQSPAKSSQDHAMEAGSPVSTSPEPVETCSFCFPECRAPTQESAVTPGTPDPTCAGRWGCHTRTTVLQPCPHIPDSGLGIVCVPAQEGGPGA
modifications: fluorescently labeled at the N-terminus (Monolith NT Protein Labeling Kit RED-NHS)
Kd [1]: 185 nM | Kd [2]: 586 nM

B2: FLAG-TACI-L (receptor)
chain: MSGLGRSRRGGRSRVDQEERFPQGLWTGVAMRSCPEEQYWDPLLGTCMSCKTICNHQSQRTCAAFCRSLSCRKEQGKFYDHLLRDCISCASICGQHPKQCAYFCENKLRSPVNLPPELRRQRSGEVENNSDNSGRYQGLEHRGSEASPALPGLKLSADQVALVYSTLGLCLCAVLCCFLVAVACFLKKRGDPCSCQPRSRPRQSPAKSSQDHAMEAGSPVSTSPEPVETCSFCFPECRAPTQESAVTPGTPDPTCAGRWGCHTRTTVLQPCPHIPDSGLGIVCVPAQEGGPGA
modifications: for MST only: fluorescently labeled at the N-terminus (Monolith NT Protein Labeling Kit RED-NHS)
Kd [1]: 567 nM | Kd [2]: 1080 nM
